Positions count from the first letter of the chain named. Where two headings read alike, the source gives them in different places. Each block holds one binder with its values, some of them ahead of it.
How the values were obtained:
[1] = molecular target: T1, human PILRB extracellular domain (recombinant) (human, UniProt Q9UKJ0 20-191); assay: SPR, Biacore 8K, recombinant ECD
T1 construct: also called hPILRB
Description: (§1) Antibodies were captured on Biacore™ Series S CM5 sensor chips immobilized with mouse anti-human Fab (human Fab capture kit from GE Healthcare) followed by injections of serial 3-fold dilutions of recombinant ECD reagents at a flow rate of 30 μL/min. Each sample was analyzed using a 3-minute association followed by a 10-minute dissociation. After each injection, the sensor chip was regenerated using a 5 0 mM glycine pH2.0 regeneration buffer. A 1:1 Languir model of simultaneous fitting of kₒₙ and koff was used for kinetics analysis.

human PILRA G78 on cells [2] = molecular target: T2, human PILRA G78 on cells (human, UniProt Q9UKJ1 20-303); assay: flow cytometry on HEK293 cells expressing hPILRA G78
T2 construct: wild-type iMicroglia are R78/G78 heterozygous (said in the assay field); also called hPILRA; hPILRA G78
T2 sequence (Q9UKJ1 20-303 R78G limits assumed): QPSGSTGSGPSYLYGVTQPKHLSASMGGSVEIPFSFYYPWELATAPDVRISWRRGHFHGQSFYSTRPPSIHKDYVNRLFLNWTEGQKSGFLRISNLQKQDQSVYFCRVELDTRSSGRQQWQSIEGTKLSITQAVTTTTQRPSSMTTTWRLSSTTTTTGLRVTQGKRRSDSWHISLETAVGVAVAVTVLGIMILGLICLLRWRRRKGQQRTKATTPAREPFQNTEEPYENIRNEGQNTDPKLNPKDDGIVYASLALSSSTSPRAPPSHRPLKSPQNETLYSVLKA
Description: Parental HEK293 cells were labeled with NucBlue Live ReadyProbes Reagent for 30 mins. […] Antibody binding to the cells was detected by FACS and median fluorescence intensity (MFI) was derived from data analysis performed with the FLOJO software (FIGS. 1A-1C).

[3] = molecular target: T3, human PILRA G78 extracellular domain (recombinant hPILRA ECD) (human, UniProt Q9UKJ1 20-197); assay: SPR, Biacore 8K; antibody captured via anti-human Fab, recombinant ECD injected; 1:1 fit;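 also: CM5 sensor chip, ECD analyte in threefold dilution series at 30 µL/min, 3 min association and 10 min dissociation, kon and koff fitted simultaneously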
T3 construct: also called hPILRA G78
T3 sequence (Q9UKJ1 20-197 R78G limits assumed): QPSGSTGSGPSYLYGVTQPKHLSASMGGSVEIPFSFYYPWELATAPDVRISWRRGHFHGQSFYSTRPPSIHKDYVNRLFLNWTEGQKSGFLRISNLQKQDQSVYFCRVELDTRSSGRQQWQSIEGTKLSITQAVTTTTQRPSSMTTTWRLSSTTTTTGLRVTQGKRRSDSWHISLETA
Description: as §1

[4] = molecular target: T4, cynomolgus monkey PILRA extracellular domain (recombinant) (cynomolgus monkey); assay: as above
T4 construct: also called cynoPILRA; Cyno PILRA
T4 sequence (chain, as listed by the source limits assumed): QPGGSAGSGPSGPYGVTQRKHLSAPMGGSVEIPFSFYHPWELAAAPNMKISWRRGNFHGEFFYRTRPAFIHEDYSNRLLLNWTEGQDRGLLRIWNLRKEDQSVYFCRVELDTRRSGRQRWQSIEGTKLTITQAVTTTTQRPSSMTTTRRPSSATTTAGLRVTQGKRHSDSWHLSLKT
Description: as §1

[5] = molecular target: T1, human PILRB extracellular domain …; assay: SPR
[6] = molecular target: T3, human PILRA G78 extracellular domain …; assay: SPR, Biacore 8K; hPILRA ECD; antibody with wild-type Fc
Description: as §1
Characterization for binding affinities of the humanized antibodies to hPILRA ECD were measured by SPR using a Biacore 8K instrument (Table 7).

[7] = molecular target: T3, human PILRA G78 extracellular domain …; assay: SPR
[8] = molecular target: T5, human PILRA R78 extracellular domain (recombinant) (human, UniProt Q9UKJ1 20-197); assay: SPR
T5 construct: also called hPILRA R78
T5 sequence (Q9UKJ1 20-197 limits assumed): as the sequence (Q9UKJ1 20-197 R78G limits assumed) above, with G59R counted along it

[9] = molecular target: T1, human PILRB extracellular domain …; assay: SPR; remark: listed apart in the source
[10] = molecular target: T4, cynomolgus monkey PILRA extracellular …; assay: SPR
human PILRA G78 on cells [11] = molecular target: T2, human PILRA G78 on cells; assay: cell-based or functional assay
human PILRA R78 on cells [12] = molecular target: T6, human PILRA R78 on cells (human, UniProt Q9UKJ1 20-303); assay: cell-based or functional assay
T6 sequence (Q9UKJ1 20-303 limits assumed): as the sequence (Q9UKJ1 20-303 R78G limits assumed) above, with G59R counted along it

human PILRA G78 on cells [13] = molecular target: T2, human PILRA G78 on cells; assay: flow cytometry on HEK293 cells expressing hPILRA G78; remark: listed apart in the source
human PILRA G78 on cells [14] = molecular target: T2, human PILRA G78 on cells; assay: flow cytometry on PILRA G78 expressing CHO-K1 cells (FIG. 1H)
Description: (§2) PILRA G78 or R78 overexpressing HEK293 cells were stained with NucBlue Live cell stain for 30 mins at RT. […] Cell lines were run in duplicate to account for intra-variability, for a total of N=3. The same protocol was used for CHO-K1 cells expressing hPILRA G78.

human PILRA R78 on cells [15] = molecular target: T6, human PILRA R78 on cells; assay: flow cytometry on PILRA R78 expressing HEK293 cells (FIG. 1F); HEK293 cells expressing PILRA R78
Description: as §2

human PILRA G78 on cells [16] = molecular target: T2, human PILRA G78 on cells; assay: cell-based or functional assay; remark: listed apart in the source
[17] = molecular target: T4, cynomolgus monkey PILRA extracellular …; assay: SPR, Biacore 8K, recombinant ECD
Description: as §1

T1 sequence (Q9UKJ0 20-191 limits assumed): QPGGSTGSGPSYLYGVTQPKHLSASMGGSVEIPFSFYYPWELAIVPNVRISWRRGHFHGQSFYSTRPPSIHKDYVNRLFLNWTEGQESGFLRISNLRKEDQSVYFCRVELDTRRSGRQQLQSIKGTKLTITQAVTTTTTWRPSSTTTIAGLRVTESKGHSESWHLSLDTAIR

binding result [1]: no binding | EC50 (human PILRA G78 on cells [2]): 536 nM | Kd [3]: 11 nM | Kd [4]: 59 nM
B1: Anti-PILRA antibody clone 8 (antibody, V domains shown)
VH: QVQLVQSGAEVKKPGASVKVSCKASGYTFTGHYMHWVRQAPGQGLEWMGWINPNSGDTDYAQKFQGRVTMTRDTSISTAYMDLNRLRSDDTAVFYCAREGLDGDPFDYWGQGTLVTVSS
VL: EIMLTQTPLSSPVTLGQPASISCRSSQSLVHSDGNTYLSWLQQRPGQPPRLLIYNISNRFSGVPDRFSGRGAGTDFTLKISRVEAEDVGVYYCIQTTQFSTFGQGTKLEIK

Kd [5]: 42 to 97 nM
B2: Anti-PILRA antibody clone 36 (antibody, V domains shown)
VH: EVQLVQSGAEVKKPGASVKVSCKASGYTFTEYYMYWVRQAPGQGLELIGRIDPEDGGTDYIEKFKNRVTLTADTSTSTAYLELSSLRSEDTAVYYCATTIRGTVFAFWGQGTLVTVSS
VL: DIQMTQSPSSLSASVGDRVTITCRPSEDIYNGLAWYQQKPGKAPKLLIYNANSLHTGVPSRFSGSGSGTDYTLTISSLQPEDFATYFCQQYYDYPLTFGQGTKVEIK
notes: Humanized

Kd [6]: 2.8 nM
B3: Anti-PILRA antibody clone 32 (antibody, V domains shown)
VH: B2 VH
VL: B2 VL with A43S
notes: Humanized

Kd [6]: 1.63 nM
B4: Anti-PILRA antibody clone 14 (antibody, V domains shown)
VH: B2 VH with L70I, Y95F
VL: B2 VL with P25A, Y30F, A43S, N52K, S53T, T69S
notes: Humanized

Kd [6]: 0.794 nM
B5: Anti-PILRA antibody clone 25 (antibody, V domains shown)
VH: B2 VH with V68S, Y95F
VL: B2 VL
notes: Humanized

Kd [6]: 0.878 nM
B6: Anti-PILRA antibody clone 30 (antibody, V domains shown)
VH: B2 VH with I61V, T98S, A106V, F107Y
VL: B2 VL with P25A, Y30F, A43S, N52K, S53T, F87Y
notes: Humanized

Kd [6]: 1.28 nM
B7: Anti-PILRA antibody clone 29 (antibody, V domains shown)
VH: B2 VH with V68S, Y95F
VL: B2 VL with P25A, Y30F, A43S, N52K, S53T, F87Y
notes: Humanized

Kd [6]: 1.8 nM
B8: Anti-PILRA antibody clone 34 (antibody, V domains shown)
VH: B2 VH with I61V, T98S, A106V, F107Y
VL: B2 VL with A43S
notes: Humanized

Kd [6]: 0.915 nM
B9: Anti-PILRA antibody clone 31 (antibody, V domains shown)
VH: B2 VH with I61V, V68A, Y95F, T98S, A106V, F107Y
VL: B2 VL with P25A, Y30F, A43S, N52K, S53T, F87Y
notes: Humanized

Kd [6]: 7.53 nM
B10: Anti-PILRA antibody clone 18 (antibody, V domains shown)
VH: B2 VH with I61V, L70I, Y95F, T98S, A106V, F107Y
VL: B2 VL with P25A, Y30F, A43S, N52K, S53T, T69S
notes: Humanized

Kd [6]: 0.536 nM
B11: Anti-PILRA antibody clone 27 (antibody, V domains shown)
VH: B2 VH with I61V, V68A, Y95F, T98S, A106V, F107Y
VL: B2 VL
notes: Humanized

Kd [6]: 0.515 nM
B12: Anti-PILRA antibody clone 22 (antibody, V domains shown)
VH: B2 VH with I61V, T98S, A106V, F107Y
VL: B2 VL with F87Y
notes: Humanized

Kd [6]: 11 nM
B13: Anti-PILRA antibody clone 16 (antibody, V domains shown)
VH: B2 VH with I61V, V68A, L70I, T98S, A106V, F107Y
VL: B2 VL with P25A, Y30F, A43S, N52K, S53T, T69S
notes: Humanized

Kd [6]: 2 nM
B14: Anti-PILRA antibody clone 19 (antibody, V domains shown)
VH: B2 VH with I61V, V68A, Y95F, T98S, A106V, F107Y
VL: B2 VL with P25A, Y30F, A43S, N52K, S53T, T69S
notes: Humanized

Kd [6]: 1.73 nM
B15: Anti-PILRA antibody clone 20 (antibody, V domains shown)
VH: B2 VH
VL: B2 VL with F87Y
notes: Humanized

Kd [6]: 0.667 nM
B16: Anti-PILRA antibody clone 21 (antibody, V domains shown)
VH: B2 VH with V68S, Y95F
VL: B2 VL with F87Y
notes: Humanized

Kd [7]: 0.65 nM | Kd [8]: 10 nM | Kd [9]: 95 nM | Kd [10]: 0.72 nM | pSTAT3 S727 induction, EC50 (nM) (human PILRA G78 on cells [11]): 17.5 nM | pSTAT3 S727 induction, Fold Over Background (human PILRA G78 on cells [11]): 32.2 fold | pSTAT3 Y705 induction, EC50 (nM) (human PILRA G78 on cells [11]): 16.9 nM | pSTAT3 Y705 induction, Fold Over Background (human PILRA G78 on cells [11]): 33.5 fold | pSTAT3 S727 induction, EC50 (nM) (human PILRA R78 on cells [12]): 12.7 nM | pSTAT3 S727 induction, Fold Over Background (human PILRA R78 on cells [12]): 24.8 fold | pSTAT3 Y705 induction, EC50 (nM) (human PILRA R78 on cells [12]): 5.66 nM | pSTAT3 Y705 induction, Fold Over Background (human PILRA R78 on cells [12]): 38.2 fold | EC50 (human PILRA G78 on cells [13]): 11.2 nM | Kd [6]: 0.917 nM | EC50 (human PILRA G78 on cells [14]): 9 nM | EC50 (human PILRA R78 on cells [15]): 2.7 nM
B17: Anti-PILRA antibody clone 15 (antibody, V domains shown)
VH: B2 VH with V68S, Y95F
VL: B2 VL with P25A, Y30F, A43S, N52K, S53T, T69S
notes: Humanized; also called Ab.15

Kd [6]: 1.29 nM
B18: Anti-PILRA antibody clone 17 (antibody, V domains shown)
VH: B2 VH with I61V, T98S, A106V, F107Y
VL: B2 VL with P25A, Y30F, A43S, N52K, S53T, T69S
notes: Humanized

Kd [5]: 100 to 150 nM
B19: Anti-PILRA antibody clone 37 (antibody, V domains shown)
VH: B2 VH
VL: B2 VL with P25A, Y30F, A43S, N52K, S53T, F87Y
notes: Humanized

Kd [6]: 0.511 nM
B20: Anti-PILRA antibody clone 26 (antibody, V domains shown)
VH: B2 VH with I61V, T98S, A106V, F107Y
VL: B2 VL
notes: Humanized

Kd [6]: 2.04 nM
B21: Anti-PILRA antibody clone 33 (antibody, V domains shown)
VH: B2 VH with V68S, Y95F
VL: B2 VL with A43S
notes: Humanized

Kd [6]: 0.655 nM
B22: Anti-PILRA antibody clone 13 (antibody, V domains shown)
VH: B2 VH
VL: B2 VL with P25A, Y30F, A43S, N52K, S53T, T69S
notes: Humanized

pSTAT3 Y705 induction, EC50 (nM) (human PILRA G78 on cells [16]): 5.69 nM | pSTAT3 Y705 induction, Fold Over Background (human PILRA G78 on cells [16]): 26.7 fold | binding result [1]: no binding | binding result [17]: no binding | EC50 (human PILRA G78 on cells [2]): 1.28 nM | Kd [3]: 61 nM
B23: Anti-PILRA antibody clone 10 (antibody, V domains shown)
VH: EVQLVQSGAEIRKPGESLKISCKGSGYSFTTYWIAWVRQMPGKGLEWMGIIYPGDSDTRYSPSFQGQVTISADKSITTAYLQWSSLKASDTGIYYCARTYYYFSGSHWDAFDIWGQGTMVTVSS
VL: DIQMTQSPSSVSAYVGDRVTITCRASQDIRDCLAWYQQKPGKAPKFLIYAASSFQSGVPSGFSGSGSGTDFTLTVTSLQPEDSATYYCQQTHSFPYTFGQGTKLEIK
notes: also called Ab; Clone 10

pSTAT3 Y705 induction, EC50 (nM) (human PILRA G78 on cells [16]): 5.93 nM | pSTAT3 Y705 induction, Fold Over Background (human PILRA G78 on cells [16]): 16.9 fold | binding result [1]: no binding | binding result [17]: no binding | EC50 (human PILRA G78 on cells [2]): 1.28 nM | Kd [3]: 1.6 nM
B24: Anti-PILRA antibody clone 9 (antibody, V domains shown)
VH: QVQLQESGPGLVKPSGTLSLTCAVSGGSISSNNWWSWVRQPPGKGLEWIGEIYHFGTTTYNPSLKSRVTISVDKSKNQFSLKLSSLTAADTAVYYCARTLRDFYYYMDVWGKGTTVTVSS
VL: DIHMTQSPSSLSASVGDRVTITCRTSQNINTYLNWYQQRPGRAPKLLIYAASSLQSGVPSRFSGSGSGTDFILSISSLQPEDFATYYCQQSFNIPLTFGGGTKVEIK
notes: also called Ab; Clone 9

pSTAT3 Y705 induction, Fold Over Background (human PILRA G78 on cells [16]): 1.42 fold | binding result [1]: no binding | EC50 (human PILRA G78 on cells [2]): 10.5 nM | Kd [3]: 140 nM | Kd [4]: 110 nM
B25: Anti-PILRA antibody clone 11 (antibody, V domains shown)
VH: EVKLVESGGGLVRPGGSQKLSCAVSGFAFSGYDMSWVRQTPEKRLEWVATISNGGRHTYYPDSVKGRFTISRDNARNTLYLQMSSLRSEDTALYYCARQKTWDVHAMDYWGQGTSVTVSS
VL: QLVLTQSSSASFSLGASAKLTCTLSSQHSTYTIEWYQQQPLKPPKYVMELKKDGSHSTGDGIPDRFSGSSSGADRYLSISNIQPEDEAIYICGVGDTIKEQFVYVFGGGTKVTVL

binding result [1]: no binding | EC50 (human PILRA G78 on cells [2]): 14.1 nM | Kd [3]: 1.7 nM | Kd [4]: 3 nM
B26: Anti-PILRA antibody clone 3 (antibody, V domains shown)
VH: EVQLVESGGGLVQPGRSLRLSCAASGFTFDDYAIHWVRQAPGKGLEWVSGMSWNSGSIGYGDSVKGRFTISRDNAKNSLYLQMNSLRAEDTAFYYCAKDKSIGAAGRFDCWGQGTLVTVSS
VL: not shown

Reference: patent US20260109763A1 (DENALI THERAPEUTICS, published 2026)
